Measured values as given in patent US10562947B2, “Compositions and methods for preventing or treating diseases, conditions or processes characterized by aberrant fibroblast proliferation and extracellular matrix deposition” (MOERAE MATRIX, INC., priority 2011, dated 2020).

Key:
Test in all cases: Kinase Profiling Assay
Type in all cases: biochemical
Settings in all cases: 100 μM peptide
ALK4(h) = molecular target: T1, ALK4(h) (Homo sapiens, UniProt P36896)
T1 sequence (P36896 24-505): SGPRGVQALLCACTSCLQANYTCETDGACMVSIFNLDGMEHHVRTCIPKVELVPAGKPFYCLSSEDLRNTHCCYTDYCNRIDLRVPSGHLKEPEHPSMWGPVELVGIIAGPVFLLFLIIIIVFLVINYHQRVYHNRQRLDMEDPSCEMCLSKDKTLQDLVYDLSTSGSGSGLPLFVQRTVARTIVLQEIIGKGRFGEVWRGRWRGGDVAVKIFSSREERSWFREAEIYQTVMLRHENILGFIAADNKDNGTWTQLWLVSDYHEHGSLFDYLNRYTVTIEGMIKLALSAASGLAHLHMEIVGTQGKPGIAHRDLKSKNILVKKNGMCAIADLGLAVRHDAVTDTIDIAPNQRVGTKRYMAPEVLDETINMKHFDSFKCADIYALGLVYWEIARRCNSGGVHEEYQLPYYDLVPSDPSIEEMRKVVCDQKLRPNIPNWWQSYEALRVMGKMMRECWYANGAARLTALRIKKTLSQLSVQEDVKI
Experimental: (§1) Every kinase activity measurement was conducted in duplicate.
(§2) In addition to determining the IC50 of the compound, the specificity of MK2 inhibitory peptides was assessed by examining activities of all 266 human kinases available for testing in the Millipore kinase profiling service (Table 1).

DDR2(h) = molecular target: T2, DDR2(h) (Homo sapiens, UniProt Q16832)
T2 sequence (Q16832 22-855): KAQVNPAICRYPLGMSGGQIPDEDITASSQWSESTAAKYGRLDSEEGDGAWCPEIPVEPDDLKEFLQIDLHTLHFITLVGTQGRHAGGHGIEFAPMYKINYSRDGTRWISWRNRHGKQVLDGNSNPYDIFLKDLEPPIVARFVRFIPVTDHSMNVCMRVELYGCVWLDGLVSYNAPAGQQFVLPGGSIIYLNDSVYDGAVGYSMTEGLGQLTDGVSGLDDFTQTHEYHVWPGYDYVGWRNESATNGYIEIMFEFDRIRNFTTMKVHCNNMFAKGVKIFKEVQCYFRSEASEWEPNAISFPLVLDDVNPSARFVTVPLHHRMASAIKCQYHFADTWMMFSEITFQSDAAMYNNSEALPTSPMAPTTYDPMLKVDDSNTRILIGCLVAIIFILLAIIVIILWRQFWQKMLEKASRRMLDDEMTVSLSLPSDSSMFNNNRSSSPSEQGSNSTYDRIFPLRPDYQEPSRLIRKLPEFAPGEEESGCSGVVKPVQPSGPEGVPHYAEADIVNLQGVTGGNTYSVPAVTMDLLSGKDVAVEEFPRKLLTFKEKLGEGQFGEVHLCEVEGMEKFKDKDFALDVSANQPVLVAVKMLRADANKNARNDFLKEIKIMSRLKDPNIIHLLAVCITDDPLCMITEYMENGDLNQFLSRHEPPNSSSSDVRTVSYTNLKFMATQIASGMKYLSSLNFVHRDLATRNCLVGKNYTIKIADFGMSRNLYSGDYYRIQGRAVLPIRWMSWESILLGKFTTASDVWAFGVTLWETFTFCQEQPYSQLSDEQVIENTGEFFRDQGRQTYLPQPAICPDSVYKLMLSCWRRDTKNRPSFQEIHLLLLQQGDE
Experimental: as §1, §2

Hck(h) activated = molecular target: T3, Hck(h) activated (Homo sapiens, UniProt P08631)
T3 construct: purchased Millipore
Experimental: as §1, §2

CDK2/cyclinE(h) = CDK2/cyclinE(h) (Homo sapiens, UniProt P24941)
Experimental: as §1, §2

FGFR1(h) = FGFR1(h) (Homo sapiens, UniProt P11362)
Experimental: as §1, §2

TAO3(h) = molecular target: T4, TAO3(h) (Homo sapiens, UniProt Q9H2K8)
T4 sequence (Q9H2K8 1-898): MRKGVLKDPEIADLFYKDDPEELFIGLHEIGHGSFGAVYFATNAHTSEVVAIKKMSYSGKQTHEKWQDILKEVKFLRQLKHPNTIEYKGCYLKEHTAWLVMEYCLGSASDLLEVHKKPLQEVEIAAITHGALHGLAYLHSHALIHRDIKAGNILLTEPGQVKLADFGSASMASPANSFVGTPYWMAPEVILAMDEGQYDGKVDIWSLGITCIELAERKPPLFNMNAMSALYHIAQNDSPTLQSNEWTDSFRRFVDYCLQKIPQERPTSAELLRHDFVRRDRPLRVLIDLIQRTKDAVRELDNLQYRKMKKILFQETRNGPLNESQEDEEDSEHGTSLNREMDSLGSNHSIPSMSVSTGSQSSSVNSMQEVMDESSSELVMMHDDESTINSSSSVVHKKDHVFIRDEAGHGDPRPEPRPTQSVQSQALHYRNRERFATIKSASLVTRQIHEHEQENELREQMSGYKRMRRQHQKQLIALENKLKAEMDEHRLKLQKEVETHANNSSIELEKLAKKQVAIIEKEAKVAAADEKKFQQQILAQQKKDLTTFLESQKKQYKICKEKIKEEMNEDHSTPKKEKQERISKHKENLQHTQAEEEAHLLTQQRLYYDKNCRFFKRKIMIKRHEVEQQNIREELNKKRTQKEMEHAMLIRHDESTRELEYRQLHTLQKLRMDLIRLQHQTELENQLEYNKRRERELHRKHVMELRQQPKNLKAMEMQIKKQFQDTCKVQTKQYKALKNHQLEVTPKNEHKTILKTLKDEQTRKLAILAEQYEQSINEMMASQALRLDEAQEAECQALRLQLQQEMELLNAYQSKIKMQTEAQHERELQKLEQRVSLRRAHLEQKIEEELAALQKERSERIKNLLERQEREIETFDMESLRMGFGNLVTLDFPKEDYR
Experimental: as §1, §2

PhKγ2(h) = molecular target: T5, PhKγ2(h) (Homo sapiens, UniProt P15735)
T5 sequence (P15735 1-406): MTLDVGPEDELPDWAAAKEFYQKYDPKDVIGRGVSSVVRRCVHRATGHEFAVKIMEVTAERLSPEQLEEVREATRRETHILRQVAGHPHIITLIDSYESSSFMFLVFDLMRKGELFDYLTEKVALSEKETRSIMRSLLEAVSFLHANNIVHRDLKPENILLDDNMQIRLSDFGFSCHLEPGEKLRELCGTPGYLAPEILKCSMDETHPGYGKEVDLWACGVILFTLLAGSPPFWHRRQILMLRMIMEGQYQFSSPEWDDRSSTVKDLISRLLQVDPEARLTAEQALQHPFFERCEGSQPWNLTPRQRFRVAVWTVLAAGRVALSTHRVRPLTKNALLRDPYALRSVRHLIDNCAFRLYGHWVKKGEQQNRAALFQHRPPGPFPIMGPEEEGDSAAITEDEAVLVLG
Experimental: as §1, §2

Sequence of FGFR1(h) (P11362 22-822): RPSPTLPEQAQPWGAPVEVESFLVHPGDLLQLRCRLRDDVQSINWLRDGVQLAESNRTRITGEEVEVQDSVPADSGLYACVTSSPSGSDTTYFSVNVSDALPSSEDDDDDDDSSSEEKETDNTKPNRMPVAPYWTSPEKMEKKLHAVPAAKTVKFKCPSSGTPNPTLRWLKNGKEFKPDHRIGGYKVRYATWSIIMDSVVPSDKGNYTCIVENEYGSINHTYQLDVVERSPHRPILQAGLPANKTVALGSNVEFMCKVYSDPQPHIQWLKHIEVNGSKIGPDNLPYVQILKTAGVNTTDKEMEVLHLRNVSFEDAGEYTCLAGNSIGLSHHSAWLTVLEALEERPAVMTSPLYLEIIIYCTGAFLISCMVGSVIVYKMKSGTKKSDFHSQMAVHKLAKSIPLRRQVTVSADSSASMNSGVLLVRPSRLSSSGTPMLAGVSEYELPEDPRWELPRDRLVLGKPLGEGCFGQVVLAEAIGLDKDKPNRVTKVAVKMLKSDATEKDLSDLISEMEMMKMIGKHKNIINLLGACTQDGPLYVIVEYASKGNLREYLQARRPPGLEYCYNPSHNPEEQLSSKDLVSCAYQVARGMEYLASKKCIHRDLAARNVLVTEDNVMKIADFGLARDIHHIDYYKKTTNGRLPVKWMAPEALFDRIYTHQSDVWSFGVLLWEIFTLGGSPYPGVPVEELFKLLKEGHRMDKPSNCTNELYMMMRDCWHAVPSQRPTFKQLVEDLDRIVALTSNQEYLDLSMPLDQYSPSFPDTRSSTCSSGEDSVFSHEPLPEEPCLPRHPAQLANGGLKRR
T3 sequence (P08631 whole entry): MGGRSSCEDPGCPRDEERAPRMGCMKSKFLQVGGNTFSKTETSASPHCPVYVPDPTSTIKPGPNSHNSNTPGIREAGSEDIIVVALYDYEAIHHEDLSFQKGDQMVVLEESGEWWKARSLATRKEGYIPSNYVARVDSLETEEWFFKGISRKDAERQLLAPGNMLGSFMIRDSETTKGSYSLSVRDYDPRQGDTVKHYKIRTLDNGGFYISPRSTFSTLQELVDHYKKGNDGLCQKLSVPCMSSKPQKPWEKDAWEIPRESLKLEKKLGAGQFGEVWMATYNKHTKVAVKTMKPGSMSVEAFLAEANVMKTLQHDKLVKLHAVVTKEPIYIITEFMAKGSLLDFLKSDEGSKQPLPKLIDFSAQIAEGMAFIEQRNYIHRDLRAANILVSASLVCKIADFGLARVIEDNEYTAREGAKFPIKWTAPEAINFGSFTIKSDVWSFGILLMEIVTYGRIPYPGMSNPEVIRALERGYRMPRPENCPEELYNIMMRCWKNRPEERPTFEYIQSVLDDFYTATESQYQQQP

## FAKLAARLYRKALARQLGVAA [MMI-0300]
ALK4(h)
  ALK4(h) % activity: 140%
DDR2(h)
  DDR2(h) % activity: 94%
Hck(h) activated
  Hck(h) activated % activity: 82%
CDK2/cyclinE(h)
  CDK2/cyclinE(h) % activity: 94%
FGFR1(h)
  FGFR1(h) % activity: 55%
TAO3(h)
  TAO3(h) % activity: 77%
PhKγ2(h)
  PhKγ2(h) % activity: 46%

## HRRIKAWLKKIKALARQLGVAA (Mammalian) [MMI-0500]
ALK4(h)
  ALK4(h) % activity: 81%
DDR2(h)
  DDR2(h) % activity: 79%
Hck(h) activated
  Hck(h) activated % activity: 67%
CDK2/cyclinE(h)
  CDK2/cyclinE(h) % activity: 19%
FGFR1(h)
  FGFR1(h) % activity: 18%
TAO3(h)
  TAO3(h) % activity: 12%
PhKγ2(h)
  PhKγ2(h) % activity: 16%

## KAFAKLAARLYRKALARQLGVAA [MMI-0400]
ALK4(h)
  ALK4(h) % activity: 130%
DDR2(h)
  DDR2(h) % activity: 95%
Hck(h) activated
  Hck(h) activated % activity: 81%
CDK2/cyclinE(h)
  CDK2/cyclinE(h) % activity: 83%
FGFR1(h)
  FGFR1(h) % activity: 59%
TAO3(h)
  TAO3(h) % activity: 67%
PhKγ2(h)
  PhKγ2(h) % activity: 38%

## YARAAARQARAKALNRQLGVA (Mammalian) [MMI-0200]
ALK4(h)
  ALK4(h) % activity: 152%
Hck(h) activated
  Hck(h) activated % activity: 100%
FGFR1(h)
  FGFR1(h) % activity: 97%
PhKγ2(h)
  PhKγ2(h) % activity: 86%
